From US20170182124A1, “FGF21 Derivatives and Uses Thereof” (Novo Nordisk A/S, priority 2014, published 2017)
Where two headings read alike, the source gives them in different places.

Biological target: FGF receptor/BKL complex
Assay: FGF receptor potency in an Erk phosphorylation assay in HEK293 overexpressing human BKL
Assay type: cell-based
Conditions: HEK293/BKL cells, pERK after 12 minutes
Protocol: In order to test the binding of the FGF21 derivatives to albumin, the assay was performed in the absence of serum albumin as well as in the presence of human serum albumin (HSA) (0.1% final assay concentration). An increase in EC50 value (decrease in potency) in the presence of serum albumin for FGF21 derivatives would indicate binding to serum albumin and represents a method to predict a protracted pharmacokinetic profile of the test substance in animal models. MetFGF21 (SEQ ID NO:2) is included for reference.
HEK293 cells endogenously express several FGF receptors, including FGFR1c, FGFR3c and FGFR4. These cells are unresponsive to FGF21 until transfected with the co-receptor beta-klotho (BKL). Activation of the FGF receptor/BKL complex leads to activation of the MAPK/ERK signalling pathway and phosphorylation of ERK. The level of phosphorylated ERK (pERK) at a given time point increases with increasing concentrations of FGF21. As described below the level of pERK is measured after 12 minutes of stimulation with a range of FGF21 analogue concentrations.
The HEK293/beta-klotho cells are seeded with 30.000 cells/well in 96 well plates in DMEM (BioWhittaker #BE12-604F/U1), supplemented with 10% FCS (Gibco #16140-071), 1% penicillin/streptomycin (Gibco #15140), 100 µg/ml Hygromycin B, (Calbiochem, # 400052). Two days later and 2 hours before addition of compound the cell medium is exchanged with 100 ∞l basal medium (DMEM (BioWhittaker #BE12-604F/U1)). The FGF21 analogues are diluted in assay medium (DMEM (BioWhittaker #BE12-604F/U1) supplemented with 0.02% Tween20), warmed to 37° C., added to the cells (100 μl) and incubated at 37° C. for 12 minutes. The FGF21 derivatives were also tested in the presence of 0.1% HSA (Sigma—A1887). All medium is quickly removed and 50 μl lysis buffer is added pr. well. The plate is shaken for 5 minutes and the lysate is ready for measurement of pERK. pERK is measured in 384 well plates with the AlphaScreen SureFire kit (PerkinElmer #TGRES10K). This kit is based on ERK and pERK specific antibodies coupled to donor and acceptor beads. The presence of pERK will bring acceptor and donor beads in close proximity and a signal is generated that is read on EnVision. The data are analysed using GraphPad Prism and the potency of the FGF21 proteins is described as absolute EC50 value.

[1] = presence of 0.1% HSA, read-out: EC50 (0.1% HSA)

Sequence of FGF receptor/BKL complex (Q86Z14 whole entry, one chain of several): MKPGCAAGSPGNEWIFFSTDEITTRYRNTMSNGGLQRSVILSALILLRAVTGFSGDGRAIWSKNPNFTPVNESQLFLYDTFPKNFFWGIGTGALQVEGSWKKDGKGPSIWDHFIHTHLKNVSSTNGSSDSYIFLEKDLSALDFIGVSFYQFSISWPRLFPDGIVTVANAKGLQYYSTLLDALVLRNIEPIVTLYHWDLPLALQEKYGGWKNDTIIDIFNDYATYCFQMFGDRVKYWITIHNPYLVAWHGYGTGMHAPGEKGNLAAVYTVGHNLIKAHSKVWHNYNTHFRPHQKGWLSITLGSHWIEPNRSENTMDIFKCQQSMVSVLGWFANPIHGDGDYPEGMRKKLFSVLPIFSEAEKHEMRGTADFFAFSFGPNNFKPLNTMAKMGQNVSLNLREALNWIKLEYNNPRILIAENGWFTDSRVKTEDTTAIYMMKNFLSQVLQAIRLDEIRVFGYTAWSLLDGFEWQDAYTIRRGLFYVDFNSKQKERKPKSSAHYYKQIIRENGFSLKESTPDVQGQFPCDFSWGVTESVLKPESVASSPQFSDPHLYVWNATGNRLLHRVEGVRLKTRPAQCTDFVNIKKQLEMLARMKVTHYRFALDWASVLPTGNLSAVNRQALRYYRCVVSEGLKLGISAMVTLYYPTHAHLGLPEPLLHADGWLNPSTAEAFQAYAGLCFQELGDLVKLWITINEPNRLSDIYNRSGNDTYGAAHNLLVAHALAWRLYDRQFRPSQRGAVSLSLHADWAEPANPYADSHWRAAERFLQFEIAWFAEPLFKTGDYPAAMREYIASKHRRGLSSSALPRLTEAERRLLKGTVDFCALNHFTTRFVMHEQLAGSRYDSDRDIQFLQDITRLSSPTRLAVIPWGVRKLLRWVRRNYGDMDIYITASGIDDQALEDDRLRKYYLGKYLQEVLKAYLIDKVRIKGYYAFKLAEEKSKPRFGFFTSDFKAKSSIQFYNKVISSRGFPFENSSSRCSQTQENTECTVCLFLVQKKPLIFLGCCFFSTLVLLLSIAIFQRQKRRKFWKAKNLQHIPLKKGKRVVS

| Molecule | EC50 (absence of HSA, read-out: EC50) [nM] | EC50 [1] [nM] |
| --- | --- | --- |
| 16-[[(1S)-4-[2-[2-[2-[2-[2-[2-(2-acetamidoethylamino)-2-oxo-ethoxy]ethoxy]ethylamino]-2-oxo-ethoxy]ethoxy]ethylamino]-1-carboxy-4-oxo-butyl]amino]-16-oxo-hexadecanoic … (protein) HPIPDSSPLLQFGGQVRQRYLYTDDAQQTEAHLEIREDGTVGGAADQSPESLLQLKALKPGVIQILGVKTSRFLCQRPDGALYGSLHFDPEACSFRELLLEDGYNVYQSEAHGLPLHLPGQKSPHRDPAPRGPARFLPLPGLPPALPEPPGILAPQPPDVGSSDPLSLVGPSQCRSPSYAS | 2 | 4 |
| S{Beta-175}-[2-[2-[[2-[2-[2-[[2-[2-[2-[[(4S)-4-carboxy-4-(15-carboxypentadecanoyl-amino)butanoyl]amino]ethoxy]ethoxy]acetyl]amino]ethoxy]ethoxy]acetyl]amino]-ethylamino]-2-oxoethyl]-Ala[Gln121,Leu168, … (protein) HPIPDSSPLLQFGGQVRQRYLYTDDAQQTEAHLEIREDGTVGGAADQSPESLLQLKALKPGVIQILGVKTSRFLCQRPDGALYGSLHFDPEACSFRELLLEDGYNVYQSEAHGLPLHLPGQKSPHRDPAPRGPARFLPLPGLPPALPEPPGILAPQPPDVGSSDPLSLVGPSQGCSPSYAS | 1 | 1 |
| S{Beta-176}-[2-[2-[[2-[2-[2-[[2-[2-[2-[[(4S)-4-carboxy-4-(15-carboxypentadecanoyl-amino)butanoyl]amino]ethoxy]ethoxy]acetyl]amino]ethoxy]ethoxy]acetyl]amino]-ethylamino]-2-oxoethyl]-Ala[Gln121,Leu168, … (protein) HPIPDSSPLLQFGGQVRQRYLYTDDAQQTEAHLEIREDGTVGGAADQSPESLLQLKALKPGVIQILGVKTSRFLCQRPDGALYGSLHFDPEACSFRELLLEDGYNVYQSEAHGLPLHLPGQKSPHRDPAPRGPARFLPLPGLPPALPEPPGILAPQPPDVGSSDPLSLVGPSQGRCPSYAS | 214 | 373 |
| S{Beta-169}-[2-[2-[[2-[2-[2-[[2-[2-[2-[[(4S)-4-carboxy-4-(15-carboxypentadecanoyl-amino)butanoyl]amino]ethoxy]ethoxy]acetyl]amino]ethoxy]ethoxy]acetyl]amino]-ethylamino]-2-oxoethyl]-Ala[Gln121,Leu168, … (protein) HPIPDSSPLLQFGGQVRQRYLYTDDAQQTEAHLEIREDGTVGGAADQSPESLLQLKALKPGVIQILGVKTSRFLCQRPDGALYGSLHFDPEACSFRELLLEDGYNVYQSEAHGLPLHLPGQKSPHRDPAPRGPARFLPLPGLPPALPEPPGILAPQPPDVGSSDPLSLCGPSQGRSPSYAS | 25 | 20 |
| 4-[10-[[4-[2-[2-[2-[2-[2-[2-[[(1S)-5-acetamido-1-carboxy-pentyl]amino]-2-oxo-ethoxy]ethoxy]ethylamino]-2-oxo-ethoxy]ethoxy]ethylamino]-4-oxo-butyl]sulfonylamino]-10-oxo-decoxy]benzoic … (protein) HPIPDSSPLLQFGGQVRQRYLYTDDAQQTEAHLEIREDGTVGGAADQSPESLLQLKALKPGVIQILGVKTSRFLCQRPDGALYGSLHFDPEACSFRELLLEDGYNVYQSEAHGLPLHLPGQKSPHRDPAPRGPARFLPLPGLPPALPEPPGILAPQPPDVGSSDPLSLVGPSQGRSPSYCS | 3.2 | 4 |
| 20-[[(1S)-4-[[(1S)-4-[2-[2-[2-[2-[2-[2-[[(1S)-5-acetamido-1-carboxy-pentyl]amino]-2-oxo-ethoxy]ethoxy]ethylamino]-2-oxo-ethoxy]ethoxy]ethylamino]-1-carboxy-4-oxo-butyl]amino]-1-carboxy-4-oxo-butyl]ami … (protein) HPIPDSSPLLQFGGQVRQRYLYTDDAQQTEAHLEIREDGTVGGAADQSPESLLQLKALKPGVIQILGVKTSRFLCQRPDGALYGSLHFDPEACSFRELLLEDGYNVYQSEAHGLPLHLPGQKSPHRDPAPRGPARFLPLPGLPPALPEPPGILAPQPPDVGSSDPLSLVGPSQGRSPSYCS | 10.3 | 65.5 |
| 20-[[(1S)-4-[2-[2-[2-[2-[2-[2-[[(1S)-5-acetamido-1-carboxy-pentyl]amino]-2-oxo-ethoxy]ethoxy]ethylamino]-2-oxo-ethoxy]ethoxy]ethylamino]-1-carboxy-4-oxo-butyl]amino]-20-oxo-icosanoic … (protein) HPIPDSSPLLQFGGQVRQRYLYTDDAQQTEAHLEIREDGTVGGAADQSPESLLQLKALKPGVIQILGVKTSRFLCQRPDGALYGSLHFDPEACSFRELLLEDGYNVYQSEAHGLPLHLPGQKSPHRDPAPRGPARFLPLPGLPPALPEPPGILAPQPPDVGSSDPLSLVGPSQGRSPSYCS | 6.1 | 52.5 |
| (2S)-6-acetamido-2-[[2-[2-[2-[[2-[2-[2-[[(4S)-4-carboxy-4-(16-sulfohexadecanoylamino)butanoyl]amino]ethoxy]ethoxy]acetyl]amino]ethoxy]ethoxy]acetyl]amino]hexadecanoic … (protein) HPIPDSSPLLQFGGQVRQRYLYTDDAQQTEAHLEIREDGTVGGAADQSPESLLQLKALKPGVIQILGVKTSRFLCQRPDGALYGSLHFDPEACSFRELLLEDGYNVYQSEAHGLPLHLPGQKSPHRDPAPRGPARFLPLPGLPPALPEPPGILAPQPPDVGSSDPLSLVGPSQGRSPSYCS | 4.2 | 7.1 |
| 12-[[(1S)-4-[2-[2-[2-[2-[2-[2-[[(1S)-5-acetamido-1-carboxy-pentyl]amino]-2-oxo-ethoxy]ethoxy]ethylamino]-2-oxo-ethoxy]ethoxy]ethylamino]-1-carboxy-4-oxo-butyl]amino]-12-oxo-dodecanoic … (protein) HPIPDSSPLLQFGGQVRQRYLYTDDAQQTEAHLEIREDGTVGGAADQSPESLLQLKALKPGVIQILGVKTSRFLCQRPDGALYGSLHFDPEACSFRELLLEDGYNVYQSEAHGLPLHLPGQKSPHRDPAPRGPARFLPLPGLPPALPEPPGILAPQPPDVGSSDPLSLVGPSQGRSPSYCS | 8.4 | 3.4 |
| 20-[[4-[[(1S)-4-[2-[2-[2-[2-[2-[2-[[(1S)-5-[(2-acetamido]-1-carboxy-pentyl]amino]-2-oxo-ethoxy]ethoxy]ethylamino]-2-oxo-ethoxy]ethoxy]ethylamino]-1-carboxy-4-oxo-butyl]carbamoyl]cyclohexyl]methylamino … (protein) HPIPDSSPLLQFGGQVRQRYLYTDDAQQTEAHLEIREDGTVGGAADQSPESLLQLKALKPGVIQILGVKTSRFLCQRPDGALYGSLHFDPEACSFRELLLEDGYNVYQSEAHGLPLHLPGQKSPHRDPAPRGPARFLPLPGLPPALPEPPGILAPQPPDVGSSDPLSLVGPSQGRSPSYCS | 4 | – |
